# From US20020088017A1, “Adenosine deaminase deficient transgenic mice and methods for the use thereof” (Board of Regents, The University of Texas System, priority 1999, published 2002)
# B1: PEGADA: ADA polypeptides conjugated to polyethylene glycol; also known as ADAGEN, obtained from Enzon Inc. (protein, UniProt P56658 2-363, looked up)
# Adenosine deaminase: AQTPAFNKPKVELHVHLDGAIKPETILYYGRKRGIALPADTPEELQNIIGMDKPLSLPEFLAKFDYYMPAIAGCREAVKRIAYEFVEMKAKDGVVYVEVRYSPHLLANSKVEPIPWNQAEGDLTPDEVVSLVNQGLQEGERDFGVKVRSILCCMRHQPSWSSEVVELCKKYREQTVVAIDLAGDETIEGSSLFPGHVKAYAEAVKSGVHRTVHAGEVGSANVVKEAVDTLKTERLGHGYHTLEDATLYNRLRQENMHFEVCPWSSYLTGAWKPDTEHPVVRFKNDQVNYSLNTDDPLIFKSTLDTDYQMTKNEMGFTEEEFKRLNINAAKSSFLPEDEKKELLDLLYKAYGMPSPASAEQCL
# modifications: PEG conjugate (pegademase)
# Key:
# [1] = tested on: ADA deficient humans; conditions: weekly intramuscular injection; cited from earlier work
# [2] = tested on: adenosine in the lungs of ADA deficient mice; assay: Quantification of adenosine in lungs (reversed phase HPLC) after PEGADA; format: in vivo
# Protocol: FIG. 5A and FIG. 5B. Reversible lung eosinophilia and lung adenosine levels in ADA deficient mice treated with PEGADA. FIG. […] Differentials were determined by counting 200 cells from BALF cytospins of each sample, and multiplying the percentage of each cell type found by the total number of cells in the BALF. Mean values are given as total cells (S.E.M.). FIG. […] Mean values are given as nanomoles adenosine per mg protein±S.E.M.
# PEGADA, also known as ADAGEN, was obtained through collaboration with Enzon Inc. (Piscataway, N.J.). Control or ADA deficient mice were lightly anesthetized and injected intramuscularly with 10 microlitetrs of PEGADA corresponding to approximately 2.5 Units of ADA. […] Levels of ADA enzyme activity in tissues was measured using zymogram analysis according to established procedures (Blackburn et al., 1998). […]
# Mice were anesthetized with avertin, the thoracic cavity exposed, and the lungs were removed and frozen rapidly in liquid nitrogen to prevent metabolism of adenine nucleotides and nucleosides. Adenine nucleosides were extracted from frozen lungs using 0.4 N perchloric acid as described (Knudsen et al., 1992), and adenosine was separated and quantitated using reversed phase HPLC according to established procedures (Knudsen et al., 1992). […]
# [3] = tested on: ADA deficient mice; assay: ELISA of serum IgE and BALF cytokines after PEGADA; format: in vivo; conditions: PEGADA enzyme therapy
# Protocol: IFNg, IL-4 and IL-5 levels in BALF were determined using specific murine OptiEA ELISA kits from Pharmagen according to manufactures instructions. For the analysis of IgE levels, blood was collected from the heart of anesthetized mice and the serum separated by centrifugation of samples at 3,000 rpm for 10 min a 4 degrees C. A murine OptiEA ELISA kit from Pharmagen was utilized to quantitate serum IgE levels. Values were read and quantitated at linerarity using a MRX II plate reader equipped with Revelation software (Dynex Technologies).
# PEGADA, also known as ADAGEN, was obtained through collaboration with Enzon Inc. (Piscataway, N.J.). Control or ADA deficient mice were lightly anesthetized and injected intramuscularly with 10 microlitetrs of PEGADA corresponding to approximately 2.5 Units of ADA. Injections were given either chronically every 4 days starting at postnatal day 4, or acutely, as one injection on postnatal day 18. Levels of ADA enzyme activity in tissues was measured using zymogram analysis according to established procedures (Blackburn et al., 1998). This procedure visualizes enzyme activity on non-denaturing agarose gels (Blackburn et al., 1998).
# (§1) Cell populations were monitored in BALF collected from ADA deficient mice 72 hours following treatment with PEGADA (FIG. 5A), in order to determine what effect PEGADA treatment had on lung inflammation. […]
# [4] = tested on: ADA deficient mice; assay: Cellular differentials in bronchial alveolar lavage fluid (BALF) after PEGADA; format: in vivo
# Protocol: FIG. 5A and FIG. 5B. Reversible lung eosinophilia and lung adenosine levels in ADA deficient mice treated with PEGADA. FIG. 5A, Total cellular differentials of cells collected from BALF of 18-day old control mice (n=19), ADA deficient mice (n=12) and ADA deficient mice treated with PEGADA and examined 72 hours later (n=5). Differentials were determined by counting 200 cells from BALF cytospins of each sample, and multiplying the percentage of each cell type found by the total number of cells in the BALF. Mean values are given as total cells (S.E.M.). FIG. 5B, Adenosine levels were quantitated in the lungs of 18-day old control mice (n=5), ADA deficient mice (n=4), and ADA deficient mice treated with PEGADA and examined 72 hours later (n=4). Mean values are given as nanomoles adenosine per mg protein±S.E.M.
# Mice were anesthetized with avertin and the trachea exposed using blunt dissection. After securing a blunted 21-gauge needle into the trachea, the lungs were lavaged 5 times with 0.25 ml PBS. Lavages from individual animals were pooled and on average 0.95 to 1 ml of lavage fluid was recovered. Samples were centriflged at 2,500 rpm for 5 min to recover cells. Supernatant from these spins were collected and stored at −70 degrees C. for the analysis of cytokines. Cells were resuspended in 200 microliter PBS, an aliquot counted using a hemocytometer and another aliquot cytospun onto microscope slides where cells were stained with Diff-Quick (Dade) for cellular differentials. […] cells per sample were identified and counted under oil immersion.
# PEGADA, also known as ADAGEN, was obtained through collaboration with Enzon Inc. (Piscataway, N.J.). […] Levels of ADA enzyme activity in tissues was measured using zymogram analysis according to established procedures (Blackburn et al., 1998). […]
# as §1
# [5] = tested on: ADA deficient mice; assay: PEGADA enzyme therapy of ADA deficient mice: respiratory status and survival; format: in vivo
# Source text: The inventors contemplate that PEGADA treatments may be chronic or acute. In preferred chromic treatments a constant level of PEGADA is maintained in the mouse at concentrations of 150 to 300 U/Kg. In preferred acute treatments, a single dose of PEGADA (300 U/Kg) is given.
# For chronic treatment of the mice of the present invention, litters are given an intramuscular injection of PEGADA at four days of postnatal file. The initial dose of PEGADA given is approximately 300 U/Kg body weight, where U (unit) is defined as 1 μmole adenosine converted to inosine per minute. this dose is within an order of magnitude of that given to treat ADA deficient humans. Mice were treated every four days with a dose of 150 to 300 U/Kg.
# For acute treatment of the mice of the present invention, mice are injected intramuscularly once on postnatal day 18 with 300 U/kg PEGADA.
# PEGADA, also known as ADAGEN, was obtained through collaboration with Enzon Inc. (Piscataway, N.J.). Control or ADA deficient mice were lightly anesthetized and injected intramuscularly with 10 microlitetrs of PEGADA corresponding to approximately 2.5 Units of ADA. […] Levels of ADA enzyme activity in tissues was measured using zymogram analysis according to established procedures (Blackburn et al., 1998). This procedure visualizes enzyme activity on non-denaturing agarose gels (Blackburn et al., 1998).
# Polyethylene glycol modified ADA (PEGADA) enzyme therapy is a lifesaving strategy used to treat ADA deficient humans (Hershfield et al., 1993). […] The inventors treated ADA deficient mice with intramuscular injections of PEGADA (ENZON, Inc.; Piscataway, N.J.) in an attempt to modulate the respiratory distress seen. Mice were treated intramuscularly with 300 units of PEGADA. […] Even more striking was the observation that PEGADA could reverse the phenotype of an ADA deficient animal after its onset. ADA deficient animals were allowed to develop severe lung inflammation and damage (day 17), and were then treated with PEGADA.
# [6] = 72 hours following treatment with PEGADA
# [7] = weekly intramuscular injections of PEGADA from birth
molecule,measurement,setting,value
B1,accumulation of ADA substrates in ADA deficient humans,[1],prevents the accumulation of ADA substrates
same,accumulation of adenosine in the lung,[2],prevents the accumulation of adenosine in the lung
same,adenosine levels in ADA deficient lungs,"[2]; 72 hrs following treatment with PEGADA, control < 0.2, untreated ADA deficient 6.3 nmoles/mg protein",lowered to near control levels
same,levels of BALF cytokines,[3],no effect
same,levels of serum IgE,[3],no effect
same,alveolar macrophages in BALF,[4]; [6],remained elevated
same,number of eosinophils in BALF,[4]; [6],greatly reduced
same,number of eosinophils found in the BALs,"[4]; treatment with PEGADA, as stated in Example 9",decrease in the number of eosinophils
same,rescue of ADA deficient mice that without treatment die by three weeks of age,"[5]; chronic treatment, intramuscular, approx. 300 U/Kg at postnatal day 4, then every four days 150 to 300 U/Kg",sufficient to rescue ADA deficient mice
same,recovery and survival,[5]; treated after onset of severe lung inflammation and damage (day 17),recovered and survived as long as they were maintained on PEGADA
same,respiratory status,"[5]; treated after onset of severe lung inflammation and damage (day 17), within 24 to 48 hours",noticeably improved
same,development of pulmonary problems,[5]; [7],never develop pulmonary problems
same,survival,[5]; [7],survive as long as the animals are maintained on PEGADA
same,outcome when PEGADA therapy was stopped,[5]; withdrawal of PEGADA therapy,rapidly showed signs of pulmonary insufficiency and died within a week
